{"source": "a protein production outcome set (Wang et al. 2014)", "test": "label from the status in PepcDB records"}
{"sequence": "MADVAVLNIDSVICVNKNNDKSTPLTQLFLVLVAAESFYPTRRFVGIRVKRRQHQHLLESLVHSTAKQQGDFTKTAELATELLCQNLAVSLVSIWIFSADQGTQSLVAQFGSMALQDTYRPSLLHTVPRYLNELKNYRHIDAGNTLIDPRLTELVDSYFIPRQILSSLDVGIRINGHLEGVLCIERAQVTHHWHDSEIHLACQMADQLALTLATKHAYDKEERLSLFRCAIEQSRQMSMLINLHTEKVEYVNQAHEDITGIARDKSIGTNLRDLTFFRQHNALAEQTLAKIFRGDQAKGEVQFSRTDGSRYWLKYIVSQFITDRGNHYALVSGEENSDEHNYKAELERLAWRCGLTGLNNRSHFNRVLERTTHGLLLLVDLVAFKRFNDTYGHENGDSLLIEVGRRLKHFSEINKATEIARVGSDEFAVLLTDDNAVYDLDYFSTRLYQHLAMPILIGREQVEPKPALAVVDIASVANLFAPLTCADIAVQYAKKKKGTAIQVFNSTLLSAFKEDAQIERDLHSAIRGRQFELYYQPLRDLEQQTYIGAEALIRWHHPKKGVLYPGAFIDIAEQSGMINAIGSWVLEAACRQLNIWQHHNADLSMHVNVSARQFFSGNLYEQVWQLLTRYRLKPKTLILEITETELMGDIRHATLLCQELAELGVGLAIDDFGTGYSSMRYLKQFPISKLKIDRSFISDLTISRESQEIVSAIIAMANALNISLTAEGVETAEQEAFLAKSLCHQAQGFLYSPALREPEFAQFLLTAKQPNLIAH", "values": [{"measurement": "protein production", "result": "failed"}]}
{"sequence": "MPKMIMVNKKASESQVMELEKRNYNNPVVLCGFAGSTPTGVLAASYIVETLGMHQVAHLISQHIPPVAVFVGGKLRHPFRIYANNSNTVLVAMCEVPISSAHIYEISNTLMNWIDQVGASEIVIMEGSPANGIPEERPVFAVAEKPKLDKFKKAGIQPADSAIIAGMGGGILNECLVRKITGLSFITPTSVDIPDPGAVLSIIEAINKAYNLKIKTDLLEEQVKALDEQIKKIEEQYKELQEKQKEPQSMYG", "values": [{"measurement": "protein production", "result": "not failed"}]}
{"sequence": "NLKVKGARDVFEYMKGRIPDETKEHLFVLFLSTKNQILRHETITIGTLTASLIHPREIFKAAIRESAHSIILVHNHPSGDVQPSNADKQVTSILKKAGDLLQIELLDHVIVGNNDWFSFRDHALL", "values": [{"measurement": "protein production", "result": "not failed"}]}
{"sequence": "MSGGGVIRGPAGNNDCRIYVGNLPPDIRTKDIEDVFYKYGAIRDIDLKNRRGGPPFAFVEFEDPRDAEDAVYGRDGYDYDGYRLRVEFPRSGRGTG", "values": [{"measurement": "protein production", "result": "not failed"}]}
{"sequence": "TWTDIRYREEGNAGFLSFSFPGGAMSTAQCRRLLDAYRDACTRPTSVLVLGGERDFFSNGIHLNVIEAADDPGAESWANINAIDDLVEAVLTTTDR", "values": [{"measurement": "protein production", "result": "failed"}]}
{"sequence": "MPGAEKGPQPRRPDFTEAGVIQNRAAGRNRSPDPSPDGAQARRRSWRNQGAWLSFVAWPHRRGSATVEPPPLTLRQQLTTVRWLLTGLFAMMLLVFLYFGRDVLMPIVLALLLALMLSPIVRLLRRRKVPEGVAAVVVTLGFAAGMLLIGFTISGPVATWLEDAPSIGKRIAHKLSSLRESFDVVLDASRQVEEAADTSSKDNTDRVVMAQPGLLVKAADSLASGFTTFGVTIVITLFFLASGSMFTEKIVHVMPLFRDKLRVLRVVRDIETEVSSYLLTVAMINAGLGVAVGCALWLAGMPNAFLWGGMAMVLNFLPYIGSMIGISLVALVSFVTFDSLGQALIPPLSYLAVTSVEGQFLTPAIVGRRLELNALSVMLAVLFWAWLWGIVGALIAVPLLVVVKVVCSHFEGLAVVGEFLSARRPFSDQVKDGA", "values": [{"measurement": "protein production", "result": "failed"}]}
{"sequence": "SLRADKPKCSIQNFFIPALGKDPNSRDNTTLNFMVRCDNPNKDKGIYYDDVHLNFSTINTTKINSSALVLVGNYTVPKFYQGHKKKAKKWGQVKPLNNQTVLRAVLPNGSAVFRLDLKTQVRFKIVFWKTKRYGVEVGADVEVNGDGVKAQKKGIKMKKS", "values": [{"measurement": "protein production", "result": "not failed"}]}
{"sequence": "EGALPKASEATVCANNSKVSSPGEKVVLWTREADRVILTMCQEQGAQPHTFSVISQQLGNKTPVEVSHRFRELMQLFHTACE", "values": [{"measurement": "protein production", "result": "not failed"}]}
{"sequence": "MSGSLARAAARPNAPTLVDEATVDDFIAHSGKIVVLFFRGDAVRFPEAADLAVVLPELINAFPGRLVAAEVAAEAERGLMARFGVAVCPSLAVVQPERTLGVIAKIQDWSSYLAQIGAMLAEVDQPGEAELQS", "values": [{"measurement": "protein production", "result": "not failed"}]}
{"sequence": "MKVLLANPRGFCAGVDRAIEIVKRTIDMLGTPIYVRHEVVHNRFVVDDLKQRGAIFVEELHQVPDGATVIFSAHGVSQAVRRQAAQRGLKVFDATCPLVTKVHLDVARHCRTGRDMILIGHAGHPEVEGTMGQWDQERGTGRIYLVENIDDVATLHVAQPHHLAYTTQTTLSVDDTRNIIDALRQRFPTIQGPKNNDICYATQNRQDAVRELARECDLVLVVGSPNSSNSNRLSELAQREGVASYLIDSAAEIDPAWVIDKHHIGVTAGASAPQVLVDGVLARLYELGATSVSEHSGKPESMVFALPKALRLQLVD", "values": [{"measurement": "protein production", "result": "failed"}]}
{"sequence": "MTELATMEFHAQPQAGEPKPWAFPAPERGSLDNGLTVLRCHRPGQQVVAVEVLLDAPLDAEPAGLDGVATIMARAFSEGTDKHSAEDFAAELERCGATLDAHADHPGVRLSLEVPASRLGKALGLLADALRAPAFADGEVERLVRNRLDEIPHELANPSRRAAKELSKELFPADARMSRPRQGTEETVETIDSAAVRAFYERHVRPATATAVVVGDLTGVDLDALLADTLGAWTGSAAEPRPVPPVTADDRGRVVIVDRPGAVQTQLLIGRTGADRHDRVWPAQVLGTYCLGGTLTSRLDRVLREEKGYTYGVRAFGQVLRSAPDGTGAAMLAISGSVDTPNTGPALEDLWTVLRKLAAEGLTDAERDVAVQNLVGVAPLKYETAAAVASTLADQVEQHLPDDFQATLYRQLAATGTVEATAAVVNAFPVDRLVTVLVGDAAQIKEPVEALGIGEVTVVAAE", "values": [{"measurement": "protein production", "result": "failed"}]}
{"sequence": "AKVVFYEKPGCVGNARQKALLTASGHELEVRNLLAEPWTRETLRPFFGDKPLIEWFNQSSPKVKAGAIDFAALGVEAALALMIEDPLLIRRPLMQSGDRREVGFDQATVHAWLG", "values": [{"measurement": "protein production", "result": "failed"}]}
{"sequence": "MPQTPPFPVMYGSTNGYNKNLYKAKEEDYEGLYYHDNNLISGSLEALIEHLVPTVAYYPDRTYIFTFLLSSRLFLHPYELMSKVCHLCVDQQRLSDPQADKARVRKIAPKILQLLTEWTETFPYDFRDERMMKSLKELTHRLSTGEDLYRKAVQQMTQTLIRKLTTLSQYEEALAKINSSVTDRLTVLKTKPQSIQRDILTICNDPFTLAQQLTHIELERLSYIGPEEFVQAFVQKDPLDNDKNCFSDHKKASNLEAYVEWFNRLSYLVATEICMPVKKKHRARVIEFFIDVARECFNIGNFNSLMAIITGMNMSPVSRLKKTWAKVKTAKFDILEHQMDPSSNFYNYRTALRGATQRSITAHSSREKIVIPFFSLLIKDIYFLNEGCANRLPNGHVNFEKFWGLAKQVTEFMTWKKVECPFDRDRKILQYLLTAPVFSEDALYLASYESEGPENNMEKDRWKSLRSSLLNRT", "values": [{"measurement": "protein production", "result": "not failed"}]}
{"sequence": "MEETPKTTLPHKFLKNILMLDVLKVRIYPNKEQEISLAKSFGCSRFVWNFYLNKTNTQYEETGKGMTYCQMAKDLTQLKKLSDYEWLQEPTAAVLQQSLKNLESAFKNFFSKRAGFPKFKSKHSKQSIRFPESCSIKDSGLKLPKLGIVKVSLSKKINSKIKSVTVSKTSTGKYFAALLFEAKDLTNNKQGKISGIDLGLTSLITVFDGETCYKVDPIKPTRKYAKRLRIRQKALSRKVKGSNNRRKAIKVVAKVHEKISNTRQDFLHKLSRKLVDDNQIIVAENLCVKGLARTKLAKSIHDAGFGMLLNFISYKLEREGGKFVQVDRFFPSSKLCSCCGHKNNLLNLSIREWICPSCQTTHDRDENASRNLRTEGIRILETNTAGHAEIQACGETVRLVGTCAKKRVSEKQESPATLLCG", "values": [{"measurement": "protein production", "result": "failed"}]}
{"sequence": "MALLRRFIGQKVRTVIQVTGSEIGSVVGKSTDDLQIVVRGSSPPSPLTTYLEVIGIAESDNAIRAETWTNFGNTFDTQNYNELCKLAN", "values": [{"measurement": "protein production", "result": "failed"}]}
{"sequence": "MNADGWLADTRSSYDTVAVSYADQLRGALAGTPYLRAALELFAGMIHTAGGGPVADVGCGPGHVTAHLHGLGVDAFGIDLSPAMIDVARRDHPDLRFEVGSMTDLNLADASVTALLAFWSLIHVPDDAIPAVFGHFRRVVRPGGPLLLGFHIGDESRLKTEGYGGHPMKVHVHHRQPVQVTAWLRDAGFTVEAQWLLGLDGHIPGAVLFAHRQSLEHHHHHH", "values": [{"measurement": "protein production", "result": "failed"}]}
{"sequence": "MHEYSVVSSLIALCEEHAKKNQAHKIERVVVGIGERSAMDKSLFVSAFETFREESLVCKDAILDIVDEKVELECKDCSHVFKPNALDYGVCEKCHSKNVIITQGNEMRLLSLEMLAE", "values": [{"measurement": "protein production", "result": "failed"}]}
{"sequence": "MSDIPSDLHYTAEHEWIRRSGDDTVRVGITDYAQSALGDVVFVQLPVIGTAVTAGETFGEVESTKSVSDLYAPISGKVSEVNSDLDGTPQLVNSDPYGAGWLLDIQVDSSDVAALESALTTLLDAEAYRGTLTE", "values": [{"measurement": "protein production", "result": "not failed"}]}
{"sequence": "KVDPSDFSDVLIAHTVMKPFPDAPTALYQIKAKGYETVLMTNHSRDLIQSNVINLDHEFDMIITAEDVQTYKPNQKFFDYVNDQLGNDVEKHVHVAVDEVKDLKPAQDAGWNVIKIDRKSEDAS", "values": [{"measurement": "protein production", "result": "failed"}]}
{"sequence": "MGAWRFWWDSTRRFYKNWGSYVALIFSTNLVISYLAIPFFNWVLEMLLKWQRVSYVSYTNIGSIIIHQPLAALGMVAILLAIIILVYWQFAFLLLGIMNIFRGRPQTVRAVLRSTVTSLTGTSPSTFLFFIGYFIVILPFGSFIFTTPLLNKAKIPAFIVSYLMENPWMTLGLGCFYLLAGYLGIRLISLLPLMIVDRLPWKTAVTRSWQQTRHHLWRYLWTMIVTLFMIFLIVTTIYTLIYVAQLQFDKTSFAMAAATVNLFIMEAITEIIICYTTAIFMMLIIVCYRQDFTLLRQQPQYFNEAPRLRKLTRASVAIGLLLATSLLVAVNLVYLNGLVITKPIMISHRGVDNGNGVQNTIPALIKTSKEHPDYVEMDIQVTKDHQFVVMHDPTLKALAGVKKKPSQLTLKQLEKITVRENGYQAKIPSFDAYLKAAHKHHQKLLVEIKTSSAYTAADTKRFIDRYGATLLAHHDQVHTLSFKVMRDLKRLDQKQFVSYILPYNLTFPHTVANGYTMEVTTLNDQFVDKADRNHKTVYAWDIDNTDQMDQMMFMGVTGVVTDNLTEMQQEVKSNTDHPSYAKLLLTFMNELSLTSNE", "values": [{"measurement": "protein production", "result": "failed"}]}
{"sequence": "MINIVIPMAGAGSRFAQAGYKKPKPFIDVLGRPMICHVLDNLNMPDARFILLTRKEHFENEQETVNWIKSKYNVEFVLIDNLTEGAACTVLHAHKLIDNNTPLLIANSDQIVDMNIAEFINDSENRNLDGSVLCFKDHDTKWSYAKIDGEGLITEIREKVVISEFATVGIYYFAKGGFFVKNAIDMIIRNERVKNEFYVAPVYNFGIQEGLKFGIFNININQMHGIGTPTDLNVYIDLVQRNKLEHHHHHH", "values": [{"measurement": "protein production", "result": "not failed"}]}
{"sequence": "MSQTTTYAGSAGTAKTEIETSTIRAISWRLIPFLVLAYFFSYLDRVNLGFAALTMNAELKFTPLIFSWGAGIFFIGYFIFEVPSNLALEKFGASRWIARIMVTWGIISALMAMVSGVTSFYVLRFLLGVAEAGFFPGIILYLTYWYPAEYRARFLAAFAIAVPVSTVIGAPVSGLLLGLDGVMGLKGWQWLFIIEGIPSVLLGIVTWFYLTDRPEKADWLSAEQKAWLKAKLDSEIAAKQAVKHLSLGEALSSPKVIALSLIYFGFVGALYGMQFWLPQIVKAFGLTNAQTGFVTAIPYLFGTVAMILWARHSDATRERVMHVGAPLLLTAVALGVSSYLTDPTLTMVVLTVAAIGVFCCFGVFWTLPTAWLSGTAAAGGIALINSIGNLAGFGGPYLIGWVKEATGQTSTGLLVLAVLPLLAGILVFVGGHDSKHEFAGQGR", "values": [{"measurement": "protein production", "result": "failed"}]}
{"sequence": "MKKGFSALVEHNGYRVLVDTGTDGKILLNNMEGLGIDPNSIDALFLTHGHYDHTGGIAELLKARKDTLDVYAHPRIFEKRIALKPKRRDIGIPFSQEELESLGAIFHLNDKALEFLPGLISSGEIKRETWDRAVGYLLNNEKDPVRDDMALLIDLGDKIAVITGCGHSGILNIAKHAVEISKKPIRALIGGFHLRGASITILEDAVRGLKELNVEMLYPGHCTGIDEYAYLRMKLKAEHLNVGKEIVIK", "values": [{"measurement": "protein production", "result": "failed"}]}
